± gives the uncertainty stated by the source.
B1: Transitional endoplasmic reticulum ATPase, residues 26 to 106; numbered along this chain, P55072 (parent)
chain: LIVDEAINEDNSVVSLSQPKMDELQLFRGDTVLLKGKKRREAVCIVLSDDTCSDEKIRMNRVVRNNLRVRLGDVISIQPCP

Variants of: B1
Experiment: abundance fitness (aPCA) (normalised: wild type 0, dead -1); higher = more abundant; growth selection in yeast, the domain comes from the species named
Settings: Homo sapiens

| Variant | abundance fitness |
| --- | --- |
| K38W | -0.011 ± 0.14 |
| K38Q | -0.051 ± 0.16 |
| K38Y | -0.088 ± 0.14 |
| K38G | 0.025 ± 0.067 |
| K38S | -0.097 ± 0.092 |
| K38N | 0.186 ± 0.28 |
| K38H | -0.05 ± 0.18 |
| K38A | 0.02 ± 0.076 |
| K38E | -0.09 ± 0.11 |
| K38R | -0.024 ± 0.077 |
| K38L | 0.019 ± 0.081 |
| K38T | 0.033 ± 0.11 |
| K38F | -0.079 ± 0.2 |
| K38C | -0.225 ± 0.18 |
| K38M | -0.018 ± 0.12 |
| K38V | -0.153 ± 0.067 |
| K38I | -0.282 ± 0.15 |
| K38D | -0.11 ± 0.15 |
| D49S | 0.064 ± 0.057 |
| D49F | -0.936 ± 0.29 |
| D49K | -0.529 ± 0.41 |
| D49R | -0.627 ± 0.064 |
| D49Y | -0.745 ± 0.23 |
| D49N | -0.254 ± 0.15 |

| Variant | abundance fitness |
| --- | --- |
| D49Q | -0.307 ± 0.11 |
| D49V | -0.455 ± 0.068 |
| D49P | -0.743 ± 0.21 |
| D49M | -0.78 ± 0.2 |
| D49L | -0.904 ± 0.15 |
| D49G | -0.204 ± 0.054 |
| D49W | -0.923 ± 0.14 |
| D49T | -0.01 ± 0.097 |
| D49E | -0.094 ± 0.13 |
| D49H | -0.251 ± 0.19 |
| D49C | -0.468 ± 0.4 |
| D49A | -0.139 ± 0.07 |
| A42Y | -0.045 ± 0.22 |
| A42E | -0.117 ± 0.093 |
| A42F | 0.037 ± 0.095 |
| A42G | -0.179 ± 0.049 |
| A42M | -0.018 ± 0.065 |
| A42P | -0.825 ± 0.15 |
| A42I | -0.258 ± 0.16 |
| A42C | 0.116 ± 0.15 |
| A42S | 0.085 ± 0.069 |
| A42R | 0.028 ± 0.051 |
| A42K | 0.041 ± 0.13 |
| A42H | 0.027 ± 0.039 |

| Variant | abundance fitness |
| --- | --- |
| A42N | -0.147 ± 0.18 |
| A42Q | -0.003 ± 0.096 |
| A42D | 0.028 ± 0.12 |
| A42V | -0.065 ± 0.057 |
| A42L | -0.049 ± 0.056 |
| V46P | -0.439 ± 0.1 |
| V46I | -0.175 ± 0.07 |
| V46W | -0.74 ± 0.19 |
| V46M | -0.376 ± 0.12 |
| V46L | -0.183 ± 0.046 |
| V46F | -0.688 ± 0.15 |
| V46E | -0.649 ± 0.1 |
| V46Y | -0.911 ± 0.23 |
| V46S | -0.493 ± 0.078 |
| V46K | -0.528 ± 0.21 |
| V46D | -0.804 ± 0.17 |
| V46C | -0.048 ± 0.095 |
| V46T | -0.147 ± 0.085 |
| V46N | -0.749 ± 0.21 |
| V46R | -0.951 ± 0.15 |
| E55F | -0.052 ± 0.09 |
| E55M | -0.143 ± 0.097 |
| E55G | 0.018 ± 0.043 |
| E55L | 0.003 ± 0.059 |

| Variant | abundance fitness |
| --- | --- |
| E55Y | -0.029 ± 0.099 |
| E55S | 0.01 ± 0.056 |
| E55T | -0.03 ± 0.12 |
| E55H | -0.041 ± 0.11 |
| E55Q | 0.003 ± 0.084 |
| E55W | -0.148 ± 0.058 |
| E55K | -0.03 ± 0.11 |
| E55D | -0.174 ± 0.13 |
| E55C | 0.002 ± 0.068 |
| E55A | -0.019 ± 0.061 |
| E55V | -0.053 ± 0.046 |
| E55P | -0.075 ± 0.083 |
| T51L | -0.117 ± 0.063 |
| T51Y | -0.277 ± 0.12 |
| T51P | -0.306 ± 0.16 |
| T51R | -0.086 ± 0.062 |
| T51V | -0.145 ± 0.052 |
| T51M | -0.131 ± 0.076 |
| T51H | -0.515 ± 0.41 |
| T51S | -0.052 ± 0.054 |
| T51G | -0.024 ± 0.045 |
| T51I | -0.19 ± 0.11 |
| T51Q | -0.183 ± 0.12 |
| T51C | -0.064 ± 0.1 |

| Variant | abundance fitness |
| --- | --- |
| T51W | -0.275 ± 0.068 |
| T51D | 0.026 ± 0.094 |
| T51K | -0.065 ± 0.088 |
| T51E | 0.05 ± 0.07 |
| T51N | 0.126 ± 0.14 |
| D50Y | -0.246 ± 0.11 |
| D50R | -0.057 ± 0.054 |
| D50M | 0.025 ± 0.1 |
| D50F | -0.214 ± 0.13 |
| D50E | -0.023 ± 0.081 |
| D50I | -0.059 ± 0.1 |
| D50A | -0.023 ± 0.056 |
| D50H | -0.021 ± 0.16 |
| D50N | -0.105 ± 0.16 |
| D50G | 0.031 ± 0.046 |
| D50Q | -0.277 ± 0.2 |
| D50V | -0.12 ± 0.044 |
| D50K | -0.105 ± 0.18 |
| D50T | -0.037 ± 0.087 |
| D50L | -0.146 ± 0.058 |
| D50P | -0.105 ± 0.11 |
| K37D | -0.126 ± 0.17 |
| K37M | 0.156 ± 0.31 |
| K37F | -0.124 ± 0.14 |

| Variant | abundance fitness |
| --- | --- |
| K37N | -0.143 ± 0.32 |
| K37A | -0.222 ± 0.12 |
| K37R | 0.028 ± 0.076 |
| K37G | -0.05 ± 0.06 |
| K37L | -0.018 ± 0.082 |
| K37T | -0.072 ± 0.21 |
| K37I | -0.182 ± 0.15 |
| K37P | -0.118 ± 0.097 |
| K37S | 0.03 ± 0.042 |
| K37E | -0.035 ± 0.12 |
| K37C | -0.226 ± 0.1 |
| K37W | -0.183 ± 0.1 |
| C52D | -0.433 ± 0.11 |
| C52W | -0.728 ± 0.11 |
| C52R | -0.192 ± 0.059 |
| C52I | -0.091 ± 0.2 |
| C52E | -0.416 ± 0.085 |
| C52H | -0.452 ± 0.26 |
| C52K | -0.334 ± 0.14 |
| C52V | -0.062 ± 0.054 |
| C52Y | -0.439 ± 0.12 |
| C52M | -0.016 ± 0.092 |
| C52T | -0.027 ± 0.071 |
| C52P | -0.624 ± 0.13 |

| Variant | abundance fitness |
| --- | --- |
| C52F | -0.495 ± 0.27 |
| C52Q | -0.026 ± 0.095 |
| C52L | 0.018 ± 0.059 |
| C52G | -0.197 ± 0.047 |
| C52S | -0.261 ± 0.066 |
| C52A | -0.253 ± 0.069 |
| L47A | 0.082 ± 0.061 |
| L47D | -0.056 ± 0.076 |
| L47H | 0.126 ± 0.12 |
| L47S | -0.068 ± 0.061 |
| L47N | 0.028 ± 0.16 |
| L47Y | -0.087 ± 0.16 |
| L47Q | -0.015 ± 0.088 |
| L47T | -0.116 ± 0.099 |
| L47K | -0.036 ± 0.076 |
| L47E | 0.055 ± 0.09 |
| L47P | -0.756 ± 0.17 |
| L47G | 0.024 ± 0.043 |
| L47R | -0.01 ± 0.054 |
| L47W | -0.07 ± 0.073 |
| L47C | -0.05 ± 0.087 |
| L47M | 0.082 ± 0.095 |
| L47I | -0.042 ± 0.083 |

From the Human Domainome abundance scans (Beltran et al. 2025)
